Publication PMC5419745 (eLife, 2017)
Like-named read-outs stand apart in the source and are kept apart here.

How the values were obtained:
Assay in all cases: ITC; iTC200, 25°C, 20 mM sodium phosphate, pH 7.4, 150 mM NaCl; both partners dialysed against the same buffer
Hsa ETS-2 PNT (human) = Hsa ETS-2 PNT (human) (UniProt P15036)
[1] = molecular target: Hsa NCOA1 CID (SRC1) (human)
[2] = molecular target: Hsa NCOA2 CID (TIF2) (human)
[3] = molecular target: Hsa NCOA3 CID (ACTR) (human) (UniProt Q9Y6Q9)
Hsa p53TAD (human) = Hsa p53TAD (human) (UniProt P04637)
Fish/Tetrapod NCOA3 CID = molecular target: Fish/Tetrapod NCOA3 CID
[4] = molecular target: Hsa NCOA1 CID (SRC1) (human); remark: listed apart in the source
Target sequence in this assay (Q15788 1040-1081): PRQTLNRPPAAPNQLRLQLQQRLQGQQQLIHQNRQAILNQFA

[5] = molecular target: Hsa NCOA2 CID (TIF2) (human); remark: listed apart in the source
1R CID = molecular target: 1R CID
1R CID G1080S = molecular target: 1R CID G1080S
1R CID S1058N = molecular target: 1R CID S1058N
1R CID S1078Q = molecular target: 1R CID S1078Q
[6] = molecular target: T1, Hsa ETS-2 PNT (human), P15036
T1 chain: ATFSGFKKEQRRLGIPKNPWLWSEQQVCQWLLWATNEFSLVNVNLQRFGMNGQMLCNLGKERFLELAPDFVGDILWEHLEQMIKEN

Hsa NCOA3 CID (ACTR) = molecular target: T2, Hsa NCOA3 CID (ACTR) (human, UniProt Q9Y6Q9-3 1040-1081); details: both partners purified
T2 construct: numbers count on: splice variant NCOA3-002 (ENST00000371997); pRSET vector; also called human NCOA3 CID; ACTR CID
T2 chain (looked up): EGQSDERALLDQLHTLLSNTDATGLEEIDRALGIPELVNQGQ

Hsa p53TAD = molecular target: T3, Hsa p53TAD (human, UniProt P04637 1-61); details: both partners purified
T3 construct: source: expressed and purified as previously described (Dogan et al., 2015)

Hsa ETS-2 PNT = molecular target: T4, Hsa ETS-2 PNT (human, UniProt P15036 85-170); details: both partners purified
T4 construct: pointed (PNT) domain of human ETS-2; also called globular pointed (PNT) domain from human ETS-2; PNT domain of ETS-2; source: expressed and purified as previously described (Dogan et al., 2015)
T4 sequence (looked up): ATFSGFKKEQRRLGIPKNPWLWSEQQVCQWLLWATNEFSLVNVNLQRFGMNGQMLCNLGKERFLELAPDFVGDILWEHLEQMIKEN

T3 sequence (P04637 1-61): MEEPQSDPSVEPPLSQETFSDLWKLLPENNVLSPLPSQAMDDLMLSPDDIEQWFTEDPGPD
Hsa p53TAD (human), sequence (P04637 1-61): as above

Pma NCBD (domain or fragment)
Kd (Hsa ETS-2 PNT (human)): 1000 nM
Kd [1]: 190 nM
Kd [2]: 44 nM
Kd [3]: 230 nM

Hsa CREBBP NCBD (from UniProt Q92793 2062-2109) (domain or fragment)
Kd [1]: 330 nM
Kd [2]: 130 nM

Hsa CREBBP NCBD A2106Q/Y2108Q (from UniProt Q92793 2062-2109) (domain or fragment)
Kd [2]: 220 nM

Hsa CREBBP NCBD Y2108Q (from UniProt Q92793 2062-2109) (domain or fragment)
Kd [2]: 210 nM

Dmel NCBD (domain or fragment)
Kd [1]: 5200 nM
Kd [2]: 22000 nM
Kd [3]: 37000 nM

Hsa CREBBP NCBD A2106Q (from UniProt Q92793 2062-2109) (domain or fragment)
Kd [2]: 100 nM

Hsa p300 NCBD (domain or fragment)
Kd (Hsa ETS-2 PNT (human)): 1500 nM
Kd [1]: 180 nM
Kd [2]: 71 nM
Kd [3]: 110 nM
Kd (Hsa p53TAD (human)): 9.2 µM

ITPGALQDLLRTLKSPSSPQQQQQVLNILKSNPHLMAAFIKQRTAKYQ (domain or fragment, modifications not checked) [Dre CREBBP NCBD]
Kd (Fish/Tetrapod NCOA3 CID): 570 nM
Kd [4]: 290 nM
Kd [5]: 230 nM

IPPNALQDLLRTLRSPSSPQQQQQVLNILKSNPQLMAAFIKQRAAKYQ (domain or fragment, modifications not checked) [1R/2R NCBD]
Kd (1R CID): 200 nM
Kd (1R CID G1080S): 240 nM
Kd (1R CID S1058N): 220 nM
Kd (1R CID S1078Q): 250 nM
Kd [6]: 850 nM
Kd [4]: 110 nM
Kd [5]: 45 nM

IPPSALQDLLRTLRSPSSPQQQQQVLNILKSNPQLMAAFIKQRAARYQ (domain or fragment, modifications not checked) [1R/2R NCBD N2065S K2107R]
Kd (1R CID): 170 nM
Kd (1R CID G1080S): 130 nM

IPPSALQDLLRTLRSPSSPQQQQQVLNILKSNPQLMAAFIKQRAAKYQ (domain or fragment, modifications not checked) [1R/2R NCBD N2065S]
Kd (1R CID): 130 nM

IPPNALQDLLRTLKSPSSPQQQQQVLNILKSNPQLMAAFIKQRTAKYQ (domain or fragment, modifications not checked) [Fish/Tetrapod CREBBP NCBD]
Kd (Fish/Tetrapod NCOA3 CID): 410 nM
Kd [6]: 1300 nM

B1: Hsa CREBBP NCBD (domain or fragment, human)
chain: GSISPSALQDLLRTLKSPSSPQQQQQVLNILKSNPQLMAAFIKQRTAKYV
notes: Gly-Ser left at the N-terminus from the expression construct; NCBD domain of human CREBBP; pRSET vector; also called human CREBBP NCBD
Kd (Hsa NCOA3 CID (ACTR)): 350 nM
Kd (Hsa p53TAD): 84 µM
Kd (Hsa ETS-2 PNT): 760 nM
Kd (1R CID): 380 nM
